Results on one molecule are retold here after patent US8865222B2, “Beta-casein assemblies for enrichment of food and beverages and methods of preparation thereof” (Technion Research and Development Foundation Ltd., priority 2008, dated 2014).

The nature of data set [1]: Analytical ultracentrifugation, sedimentation equilibrium. It is filed as physicochemical. As to the method:
• Cryo-TEM: Specimens were prepared in the controlled environment vitrification system (CEVS) (Bellare et al. Electron Microsc. Technique, 1988, 10; 87-111) at 24° C. and 100% relative humidity to avoid loss of volatiles. First, the solutions were incubated in the CEVS at the desired temperature for 1 h. Then, a 7 μL drop of each solution was placed on a TEM copper grid covered with a perforated carbon film (Pelco International) and blotted with filter paper to form a thin liquid film of the sample (100-200 nm thick). The thinned sample was plunged into liquid ethane at its freezing temperature (−183° C.) to form a vitrified specimen and then transferred to liquid nitrogen ([…]) for storage. The vitrified specimens were examined in a Philips CM120 transmission electron microscope operating at an accelerating voltage of 120 kV. We used an Oxford CT3500 (Oxford Instruments) cryoholder that maintained the specimens below −175° C. during sample transfer and observation. Images were recorded digitally on a cooled Gatan MultiScan 791 CCD camera using DigitalMicrograph 3.1 software (Gatan) in the low-dose imaging mode to minimize beam exposure and electron-beam radiation damage. • ITC: ITC measurements were performed with a VP-ITC calorimeter (MicroCal) at a temperature of 24° C. […] The micellar solution was injected into the reaction cell in 28 steps of 10 μL aliquots each, and the heat flow was measured. […] The average apparent molecular weight of the micelles at the various protein concentrations was calculated following methods well known in the art (The partial specific volume vj of the solute was taken to be 0.742 cm3/g3, and a solution density F of 1.0044 g/cm3 was measured). At beta-casein concentrations of 2 mg/mL and above under low pH conditions, the plot of the natural logarithm of the measured absorbance versus the square of the radius from the axis of rotation was not linear. […] The molecular weight calculated using this slope was divided by the monomer molecular weight calculated from the beta-casein amino acid sequence (24000). […]

For data set [2] the following is noted: depending on temperature, pH, solvent composition and ionic strength (Portnaya 2006); cited from earlier work.
A short description of data set [3]: Cryo-TEM of beta-casein micelles and vitamin D loaded assemblies. It is filed as physicochemical. As to the method: • Cryo-TEM: Specimens were prepared in the controlled environment vitrification system (CEVS) (Bellare et al. Electron Microsc. Technique, 1988, 10; 87-111) at 24° C. and 100% relative humidity to avoid loss of volatiles. First, the solutions were incubated in the CEVS at the desired temperature for 1 h. Then, a 7 μL drop of each solution was placed on a TEM copper grid covered with a perforated carbon film (Pelco International) and blotted with filter paper to form a thin liquid film of the sample (100-200 nm thick). The thinned sample was plunged into liquid ethane at its freezing temperature (−183° C.) to form a vitrified specimen and then transferred to liquid nitrogen ([…]) for storage. The vitrified specimens were examined in a Philips CM120 transmission electron microscope operating at an accelerating voltage of 120 kV. We used an Oxford CT3500 (Oxford Instruments) cryoholder that maintained the specimens below −175° C. during sample transfer and observation. Images were recorded digitally on a cooled Gatan MultiScan 791 CCD camera using DigitalMicrograph 3.1 software (Gatan) in the low-dose imaging mode to minimize beam exposure and electron-beam radiation damage. • ITC: ITC measurements were performed with a VP-ITC calorimeter (MicroCal) at a temperature of 24° C. The reaction cell (V=1.43 mL) was filled with degassed solvent (lactic acid at pH 2.6, or phosphate buffer at pH 7.0). The injector-stirrer syringe (289 μL) was loaded with a beta-casein micellar solution (20 mg/mL). The micellar solution was injected into the reaction cell in 28 steps of 10 μL aliquots each, and the heat flow was measured. During the titration, the stirring speed was 310 rpm. The duration of each injection was 20 s, and the equilibration time between consecutive injections was 3 min. Such an interval was sufficient to equilibrate the reaction cell after every injection. Each experiment was performed at least three times. Calorimetric data analysis was carried out using Origin 5.0 software (MicroCal). • Analytical Ultracentrifugation: Sedimentation equilibrium experiments were performed at 24° C. using a Beckman Optima XL-A (Palo Alto, Calif.) analytical centrifuge at 6000, 10000, and 12000 rpm for the low-pH solutions and at 4000, 6000, and 8000 rpm for the pH 7.0 solutions. Data were collected at 280 nm. The beta-casein solutions were studied at concentrations ranging from 0.2 to 10.0 mg/mL at pH 2.6 and from 0.2 to 2 mg/mL at pH 7.0 and an ionic strength of 0.1. […] The average apparent molecular weight of the micelles at the various protein concentrations was calculated following methods well known in the art (The partial specific volume vj of the solute was taken to be 0.742 cm3/g3, and a solution density F of 1.0044 g/cm3 was measured). At beta-casein concentrations of 2 mg/mL and above under low pH conditions, the plot of the natural logarithm of the measured absorbance versus the square of the radius from the axis of rotation was not linear. To estimate Nagg, the limiting slope toward the outer edge of the sample cell was used to provide dln(c)/dr^2. The molecular weight calculated using this slope was divided by the monomer molecular weight calculated from the beta-casein amino acid sequence (24000).
• Characterization of the beta-casein micelles by cryo-TEM: The structural characteristics of the micelles in the two pH environments were studied by cryo-TEM and SAXS. Cryo-TEM was used to determine the shape of the micelles and to estimate their dimensions between 4 and 40° C. This information was further used to accurately calculate by SAXS the micelles' dimensions and to study how the size and shape are affected by temperature. SAXS measurements also provided the critical micelle concentration (CMC) and the micelle aggregation numbers as a function of temperature. […]

Data set [4] in a line: Dynamic light scattering (DLS) particle size. It is filed as physicochemical. To be noted: pH 2.6, pure beta-casein, FIG. 12. As to the method:
The pure beta-casein micelles remain small, below 80 nm, consistent with the fact the solution remains transparent.
The particle size distribution and the turbidity of a vitamin D loaded beta-casein micellar solutions at pH 7.0 and pH 2.5 as a function of beta-casein concentration are shown in FIGS. 15 and 16 respectively. Vitamin D concentration in this experiment was kept constant (82.5 μg/ml; 0.2 mM) and the beta-casein concentration was raised gradually from 0 to 2% by weight (0 to 0.8 mM). […] This value is relatively low and the solutions looked transparent to the human eye.

Setting [5] is: lactic acid solution pH 2.6, 4-40 °C.

B1: beta-casein: lyophilized bovine beta-casein (~24 kDa milk protein) self-assembled into nano-sized micelles at low or neutral pH (protein, UniProt P02666 16-224, looked up)
Beta-casein: RELEELNVPGEIVESLSSSEESITRINKKIEKFQSEEQQQTEDELQDKIHPFAQTQSLVYPFPGPIPNSLPQNIPPLTQTPVVVPPFLQPEVMGVSKVKEAMAPKHKEMPFPKYPVEPFTESQSLTLTDVENLHLPLPLLQSWMHQPHQPLPPTVMFPPQSVLSLSQSKVLPVPQKAVPYPQRDMPIQAFLLYQEPVLGPVRGPFPIIV
With B1, in data set [1] (pH 2.6, around the CMC), the aggregation number was 3. The aggregation state result in data set [1] (pH 2.6, concentrations lower than the CMC) is “monomeric”. The same molecule came in with a Nagg in data set [1] (pH 7.0 and ionic strength 0.1) of 20. Besides, the “critical micelle concentration (CMC)” value in data set [2] is on record as 0.05-0.2%. Also, the micelle shape result in data set [3] (20 mg/mL, pH 6.7, 0.05M NaCl, 4 °C and 10 °C) is given as “Flat micelles”; in data set [3] (20 mg/mL, pH 6.7, 0.05M NaCl, 16, 25 and 40 °C), “oblate micelles”; in data set [3] (20 mg/mL, pH 6.7, 0.05M NaCl, 60 °C), “Relatively spheroidal micelles”; in data set [3] (setting [5]), “flat disk-like micelles”. Besides, the “length of elongated surfaces of micelles” value in data set [3] (setting [5]) is recorded as 20-25 nm. In addition, the micelle thickness in data set [3] (setting [5]) is listed as 3-4 nm. The width of micelles entry in data set [3] (pH 2.6) is listed as “about 3.5 nm”. For the same molecule, the “mean size of the assemblies” value in data set [4] is “below 80 nm”.
